“And” between values parts separate entries of the source, which are not always exact repeats. Equal entries are not always repeated.
Assay: Mouse weight under anti-CD14-IgG1 dosages of Example 7 (PDX mice)
Format: in vivo
Conditions: per mouse 1-5
Procedure: To evaluate concentrations for the anti-CD14-IgG1 antibody, PDX mice were treated with five different concentrations of the IgG1 antibody over a period of 28 days. For these experiments, drug administration on the PDX mice was performed intravenously on alternating 4 days and 3 days.
The five different concentrations of the anti-CD14-IgG1 antibody tested include 5 mg/kg, 10 mg/kg, 15 mg/kg, 25 mg/kg, and 40 mg/kg. A control regimen was utilized as a comparative example. […] The non-specific IgG1 has no binding affinity to antigen. […] Tumor weight and tumor volume were calculated as described above.

B1: D6DD3D001: mouse-derived anti-CD14 IgG1 antibody; VH SEQ ID NO: 1, VL SEQ ID NO: 3, heavy chain SEQ ID NO: 2, light chain SEQ ID NO: 4 (antibody)
heavy: DVQLQQSGPGLVKPSQSLSLTCTVTGYSITSDSAWNWIRQFPGNRLEWMGYISYSGSTSYNPSLKSRISITRDTSKNQFFLQLNSVTTEDTATYYCVRGLRFAYWGQGTLVTVSSPSVFLFPPKPKDTLMISRTPEVTCVVVDVSHEDPEVKFNWYVDGVEVHNAKTKPREEQYNSTYRVVSVLTVLHQDWLNGKEYKCKVSNKALPAPIEKTISKAKGQPREPQVYTLPPSREEMTKNQVSLTCLVKGFYPSDIAVEWESNGQPENNYKTTPPVLDSDGSFFLYSKLTVDKSRWQQGNVFSCSVMHEALHNHYTQKSLSLSPGK
light: DIVLTQSPASLAVSLGQRATISCRASESVDSYVNSFLHWYQQKPGQPPKLLIYRASNLQSGIPARFSGSGSRTDFTLTINPVEADDVATYYCQQSNEDPYTFGGGTKLEIKRTVAAPSVFIFPPSDEQLKSGTASVVCLLNNFYPREAKVQWKVDNALQSGNSQESVTEQDSKDSTYSLSSTLTLSKADYEKHKVYACEVTHQGLSSPVTKSFNRGEC
With B1 the “Mouse Weight” value (Day 0, IgG1 (10 mg/kg), 10 mg/kg) was 19.83 g and 20.73 g and 20.13 g and 20.77 g and 19.27 g, the “Mouse Weight” value (Day 0, IgG1 (15 mg/kg), 15 mg/kg) was 20.37 g and 19.02 g and 20.34 g and 19.62 g and 19.24 g and the “Mouse Weight” value (Day 0, IgG1 (25 mg/kg), 25 mg/kg) was 19.63 g and 20.3 g and 19.71 g and 20.07 g and 20.02 g. The “Mouse Weight” value (Day 4, IgG1 (5 mg/kg), 5 mg/kg) was 20.33 g and 20.63 g and 19.58 g and 19.86 g and 20.45 g, the “Mouse Weight” value (Day 4, IgG1 (10 mg/kg), 10 mg/kg) was 19.89 g and 20.39 g and 19.36 g and 20.74 g and 20.98 g and the “Mouse Weight” value (Day 4, IgG1 (15 mg/kg), 15 mg/kg) was 20.83 g and 19.54 g and 20.87 g and 20.44 g and 20.68 g. For the same molecule, the “Mouse Weight” value (Day 4, IgG1 (25 mg/kg), 25 mg/kg) was 20.75 g and 19.2 g and 20.99 g and 20.16 g and 20.55 g, the “Mouse Weight” value (Day 7, IgG1 (5 mg/kg), 5 mg/kg) was 20.95 g and 20.07 g and 20.36 g and 20.83 g and 20.56 g and the “Mouse Weight” value (Day 7, IgG1 (10 mg/kg), 10 mg/kg) was 20.81 g and 19.35 g and 19.89 g and 20.23 g and 21.08 g. The “Mouse Weight” value (Day 7, IgG1 (15 mg/kg), 15 mg/kg) was 19.65 g and 20.62 g and 20.38 g and 20.56 g and 20.71 g, the “Mouse Weight” value (Day 7, IgG1 (25 mg/kg), 25 mg/kg) was 20.86 g and 20.2 g and 20.76 g and 21.38 g and 20.06 g and the “Mouse Weight” value (Day 11, IgG1 (5 mg/kg), 5 mg/kg) was 20.85 g and 20.72 g and 20.22 g and 21.21 g and 20.94 g. The “Mouse Weight” value (Day 11, IgG1 (10 mg/kg), 10 mg/kg) was 20.77 g and 20.5 g and 20.97 g and 21.03 g and 20.94 g, the “Mouse Weight” value (Day 11, IgG1 (15 mg/kg), 15 mg/kg) was 20.35 g and 20.89 g and 21.32 g and 21.08 g and 20.47 g and the “Mouse Weight” value (Day 11, IgG1 (25 mg/kg), 25 mg/kg) was 20.11 g and 20.4 g and 19.5 g and 20.84 g and 21.5 g. The “Mouse Weight” value (Day 14, IgG1 (5 mg/kg), 5 mg/kg) was 20.75 g and 21.06 g and 20.89 g and 21.69 g and 20.67 g, the “Mouse Weight” value (Day 14, IgG1 (10 mg/kg), 10 mg/kg) was 20.15 g and 20.69 g and 21.19 g and 21.53 g and 20.71 g and the “Mouse Weight” value (Day 14, IgG1 (15 mg/kg), 15 mg/kg) was 20.47 g and 21.16 g and 21.65 g and 20.87 g and 21.13 g. The “Mouse Weight” value (Day 14, IgG1 (25 mg/kg), 25 mg/kg) was 20.13 g and 21.05 g and 20.39 g and 21.39 g and 21.62 g, the “Mouse Weight” value (Day 18, IgG1 (5 mg/kg), 5 mg/kg) was 21.11 g and 21.36 g and 20.44 g and 20.69 g and 21.33 g and the “Mouse Weight” value (Day 18, IgG1 (10 mg/kg), 10 mg/kg) was 21.27 g and 20.66 g and 21.04 g and 20.85 g and 21.37 g. For the same molecule, the “Mouse Weight” value (Day 18, IgG1 (15 mg/kg), 15 mg/kg) was 20.73 g and 21.69 g and 20.31 g and 20.9 g and 21.29 g, the “Mouse Weight” value (Day 18, IgG1 (25 mg/kg), 25 mg/kg) was 21.14 g and 21.03 g and 20.46 g and 21.57 g and 21.77 g and the “Mouse Weight” value (Day 21, IgG1 (5 mg/kg), 5 mg/kg) was 20.92 g and 21.85 g and 21.42 g and 21.87 g and 21.66 g. For the same molecule, the “Mouse Weight” value (Day 21, IgG1 (10 mg/kg), 10 mg/kg) was 21.25 g and 21.16 g and 20.97 g and 21.13 g and 21.28 g, the “Mouse Weight” value (Day 21, IgG1 (15 mg/kg), 15 mg/kg) was 20.6 g and 21.12 g and 21.33 g and 20.4 g and 21.98 g and the “Mouse Weight” value (Day 21, IgG1 (25 mg/kg), 25 mg/kg) was 21.3 g and 22.05 g and 21.54 g and 20.62 g and 21.57 g. The “Mouse Weight” value (Day 25, IgG1 (5 mg/kg), 5 mg/kg) was 22.45 g and 21.06 g and 21.98 g and 22.14 g and 22.16 g, the “Mouse Weight” value (Day 25, IgG1 (10 mg/kg), 10 mg/kg) was 22.27 g and 22.35 g and 21.64 g and 20.37 g and 22.93 g and the “Mouse Weight” value (Day 25, IgG1 (15 mg/kg), 15 mg/kg) was 22.28 g and 21.01 g and 22.42 g and 20.52 g and 22.73 g. For the same molecule, the “Mouse Weight” value (Day 25, IgG1 (25 mg/kg), 25 mg/kg) was 22.17 g and 21.73 g and 22.39 g and 21.5 g and 20.56 g, the “Mouse Weight” value (Day 28, IgG1 (5 mg/kg), 5 mg/kg) was 22.42 g and 23.8 g and 22.04 g and 21.81 g and 21.72 g and the “Mouse Weight” value (Day 28, IgG1 (10 mg/kg), 10 mg/kg) was 22.71 g and 23.8 g and 21.44 g and 22.24 g and 21.16 g.
